Reference: publication PMC10786891, “Massively parallel profiling of RNA-targeting CRISPR-Cas13d”
Where a chain is given by its changes, count along the chain named. In names and notes the source's numbering stands.

T1: EsCas13d, nuclease-dead (Eubacterium siraeum, UniProt B0MS50, R295A;H300A;R849A;H854A)
T1 sequence: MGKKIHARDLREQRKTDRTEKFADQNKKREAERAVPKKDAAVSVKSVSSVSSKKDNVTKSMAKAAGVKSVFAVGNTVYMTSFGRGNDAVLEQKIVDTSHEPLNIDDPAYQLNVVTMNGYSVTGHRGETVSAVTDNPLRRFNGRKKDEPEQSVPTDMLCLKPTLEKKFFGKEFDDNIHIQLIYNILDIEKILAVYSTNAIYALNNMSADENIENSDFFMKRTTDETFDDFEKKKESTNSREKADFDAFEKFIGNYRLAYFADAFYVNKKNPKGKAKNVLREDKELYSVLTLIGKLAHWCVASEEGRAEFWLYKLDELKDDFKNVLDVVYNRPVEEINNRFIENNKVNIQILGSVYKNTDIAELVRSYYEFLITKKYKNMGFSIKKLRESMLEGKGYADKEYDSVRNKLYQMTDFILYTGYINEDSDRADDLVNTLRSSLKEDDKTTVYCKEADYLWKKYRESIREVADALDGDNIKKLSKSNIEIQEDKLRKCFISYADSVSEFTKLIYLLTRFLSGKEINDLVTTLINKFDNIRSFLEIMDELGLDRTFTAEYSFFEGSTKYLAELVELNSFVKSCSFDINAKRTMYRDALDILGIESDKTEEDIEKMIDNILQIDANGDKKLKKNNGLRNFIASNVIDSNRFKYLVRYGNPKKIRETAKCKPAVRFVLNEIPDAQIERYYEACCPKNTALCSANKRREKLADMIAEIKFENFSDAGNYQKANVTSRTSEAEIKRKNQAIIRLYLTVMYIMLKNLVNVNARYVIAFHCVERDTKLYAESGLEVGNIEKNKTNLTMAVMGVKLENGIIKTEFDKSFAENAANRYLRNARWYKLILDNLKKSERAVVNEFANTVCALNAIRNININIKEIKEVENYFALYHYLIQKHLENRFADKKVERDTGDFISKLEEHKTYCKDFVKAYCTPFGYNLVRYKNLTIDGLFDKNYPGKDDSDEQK

B1: target 1 insA 3' of 11,insG 3' of 6 (mixed)
RNA 1: CACCCGUGCAAAAAUGCAGGGGUCUAAAACUGAGCGGAUAACCUCUCUAUGG
RNA 2: GGGAAUGGAUCCACAUCUACGAAUUCGUACCAUAGAGAGGUAUAUCCGGCUCACCGAGAUCGGAAGAGCACACGU
B2: target 1 A1U,U10G (mixed)
RNA 1: B1 RNA 1
RNA 2: GGGAAUGGAUCCACAUCUACGAAUUCGUACCAUAGAGAGGUGAUCCGCUCUCCGAGAUCGGAAGAGCACACGU
B3: target 1 insG 3' of 19,insU 3' of 1 (mixed)
RNA 1: B1 RNA 1
RNA 2: GGGAAUGGAUCCACAUCUACGAAUUCGUACCAUGAGAGAGGUUAUCCGCUCAUCCGAGAUCGGAAGAGCACACGU
B4: target 1 insA 3' of 13,insA 3' of 3 (mixed)
RNA 1: B1 RNA 1
RNA 2: B1 RNA 2 with G40A, U41G, A42U, G49C, C50U, U51A
B5: target 1 insG 3' of 19,insC 3' of 1 (mixed)
RNA 1: B1 RNA 1
RNA 2: B3 RNA 2 with U53C
B6: target 1 insA 3' of 11,insA 3' of 4 (mixed)
RNA 1: B1 RNA 1
RNA 2: B1 RNA 2 with G49C, C50A
B7: target 1 G12U,A14C (mixed)
RNA 1: B1 RNA 1
RNA 2: B2 RNA 2 with A38C, G40U, G42U, U51A
B8: target 1 U11C,A14G (mixed)
RNA 1: B1 RNA 1
RNA 2: B2 RNA 2 with A38G, U41C, G42U, U51A
B9: target 1 C2A,A18U (mixed)
RNA 1: B1 RNA 1
RNA 2: B2 RNA 2 with A34U, G42U, C50A, U51A
B10: target 1 A1C,U10G (mixed)
RNA 1: B1 RNA 1
RNA 2: B2 RNA 2 with U51C
B11: target 1 U11G,A18U (mixed)
RNA 1: B1 RNA 1
RNA 2: B2 RNA 2 with A34U, U41G, G42U, U51A
B12: target 1 U10G (mixed)
RNA 1: B1 RNA 1
RNA 2: B2 RNA 2 with U51A
B13: target 1 insG 3' of 7,insG 3' of 6 (mixed)
RNA 1: B1 RNA 1
RNA 2: B1 RNA 2 with A42U, U43A, A44U, U45C, C46G
B14: target 1 A1G,U10G (mixed)
RNA 1: B1 RNA 1
RNA 2: B2 RNA 2 with U51G
B15: target 1 insU 3' of 21,insU 3' of 20 (mixed)
RNA 1: B1 RNA 1
RNA 2: GGGAAUGGAUCCACAUCUACGAAUUCGUACCUAUUAGAGAGGUUAUCCGCUCACCGAGAUCGGAAGAGCACACGU
B16: target 1 G13A,A16C (mixed)
RNA 1: B1 RNA 1
RNA 2: B2 RNA 2 with A36C, G39A, G42U, U51A
B17: target 1 insC 3' of 12,insU 3' of 7 (mixed)
RNA 1: B1 RNA 1
RNA 2: B1 RNA 2 with U41C, A42U, C47U, G48C
B18: target 1 insC 3' of 15,insG 3' of 1 (mixed)
RNA 1: B1 RNA 1
RNA 2: B3 RNA 2 with G34A, A35G, G36A, A37G, G38C, U53G
B19: target 1 insU 3' of 15,insU 3' of 5 (mixed)
RNA 1: B1 RNA 1
RNA 2: B1 RNA 2 with A38U, G39A, U41G, A42U, G49U
B20: target 1 insC 3' of 11,insC 3' of 5 (mixed)
RNA 1: B1 RNA 1
RNA 2: B1 RNA 2 with A42C, G49C
B21: target 1 insA 3' of 6,insA 3' of 4 (mixed)
RNA 1: B1 RNA 1
RNA 2: B1 RNA 2 with A42U, U43A, A44U, U45C, C47A, G49C, C50A
B22: target 1 insA 3' of 11,insC 3' of 3 (mixed)
RNA 1: B1 RNA 1
RNA 2: B1 RNA 2 with G49C, C50U, U51C
B23: target 1 A1U,U19G (mixed)
RNA 1: B1 RNA 1
RNA 2: B2 RNA 2 with U33G, G42U
B24: target 1 insG 3' of 11,insG 3' of 8 (mixed)
RNA 1: B1 RNA 1
RNA 2: B1 RNA 2 with A42G, C46G, G48C
B25: target 1 insG 3' of 19,insA 3' of 2 (mixed)
RNA 1: B1 RNA 1
RNA 2: B3 RNA 2 with U53A
B26: target 1 del18 (mixed)
RNA 1: B1 RNA 1
RNA 2: GGGAAUGGAUCCACAUCUACGAAUUCGUACCAUGAGAGGUUAUCCGCUCACCGAGAUCGGAAGAGCACACGU
B27: target 1 insA 3' of 7,insU 3' of 7 (mixed)
RNA 1: B1 RNA 1
RNA 2: B1 RNA 2 with A42U, U43A, A44U, U45C, C46A, C47U, G48C
B28: target 1 C6G,A9C (mixed)
RNA 1: B1 RNA 1
RNA 2: B2 RNA 2 with G42U, A43C, C46G, U51A
B29: target 1 insA 3' of 17,insG 3' of 2 (mixed)
RNA 1: B1 RNA 1
RNA 2: B3 RNA 2 with G34A, A35G, G36A, A52G, U53A
B30: target 1 C4G,G5U (mixed)
RNA 1: B1 RNA 1
RNA 2: B2 RNA 2 with G42U, G47U, C48G, U51A
B31: target 1 insU 3' of 7 (mixed)
RNA 1: B1 RNA 1
RNA 2: GGGAAUGGAUCCACAUCUACGAAUUCGUACCAUAGAGAGGUUAUCUCGCUCACCGAGAUCGGAAGAGCACACGU
B32: target 1 insG 3' of 19,insG 3' of 1 (mixed)
RNA 1: B1 RNA 1
RNA 2: B3 RNA 2 with U53G
B33: target 1 insA 3' of 6,insC 3' of 3 (mixed)
RNA 1: B1 RNA 1
RNA 2: B1 RNA 2 with A42U, U43A, A44U, U45C, C47A, G49C, C50U, U51C

The binders below were run against T1, EsCas13d, nuclease-dead (assay: crRNA (strand 1, pre-loaded); Mg2+; 40 mM Tris-HCl pH 7.5, 150 mM NaCl, 6 mM MgCl2, 1 mM DTT, 0.1% Tween-20, 0.2 mg/ml BSA; 25 C; 10 min per concentration, then washed). Conditions: tags: His6-TwinStrep-SUMO cleaved; N-terminal SNAP kept (SNAP-Surface 488); label: 3' end held by stalled T7 RNA polymerase.

Binder | Kd [nM]
B1 | 15.7 ± 1.1
B2 | 26.4 ± 2.4
B3 | 63 ± 16
B4 | 3.99 ± 0.33
B5 | 59 ± 7
B6 | 9.6 ± 0.6
B7 | 42 ± 6
B8 | 13.4 ± 0.6
B9 | 24.2 ± 1.2
B10 | 26 ± 5
B11 | 100 ± 25
B12 | 19.9 ± 1.1
B13 | 8.54 ± 0.3
B14 | 21.1 ± 1.1
B15 | 27.8 ± 3.3
B16 | 28.8 ± 1.6
B17 | 26.9 ± 1.9

Binder | Kd [nM]
B18 | 16.7 ± 1.3
B19 | 35 ± 5
B20 | 18.2 ± 1.4
B21 | 28.5 ± 2.8
B22 | 13.8 ± 0.6
B23 | 63 ± 12
B24 | 33.3 ± 1.5
B25 | 85 ± 26
B26 | 42 ± 8
B27 | 6.31 ± 0.23
B28 | 11.7 ± 0.6
B29 | 17.3 ± 2.5
B30 | 34.2 ± 2.7
B31 | 14.8 ± 1.2
B32 | 87 ± 26
B33 | 20 ± 1.3
